Reference: the RNAGym collection of RNA variant scans (doi:10.1073/pnas.2313332121)
This sample holds only a part of the variants without activity.

B1: TPR 5TU (parent)
chain: GGAUCUUCUCGAUCUAACAAAAAAGACAAAUCUGCCACAAAGCUUGAGAGCAUCUUCGGAUGCAGAGGCGGCAGCCUUCGGUGGCGCGAUAGCGCCAACGUUCUCAACUAUGACACGCAAAACGCGUGCUCCGUUGAAUGGAGUUUAUCAUG

Variants of: B1
Assay: polymerase ribozyme fitness, log enrichment relative to wild type (log ratio); higher = more active; in vitro selection for triplet polymerase activity
Summary of the method: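 For each subunit of a heterodimeric triplet polymerase ribozyme, a mutant library was built by PCR and transcribed, then taken through a single in vitro selection round in triplicate. Selection involved annealing to a biotinylated primer, the partner subunit and triplets, incubation frozen at −7 °C, gel excision of extended constructs, capture on streptavidin beads and RT-PCR. Genotypes were retained after Illumina sequencing of inputs and outputs only with ≥10 input reads and ≥1 read in each output. Fitness is defined as the logarithm of a genotype's enrichment relative to wild-type enrichment, using inverse-variance-weighted averages across replicates, with the logarithm taken to base 2.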

Variant	polymerase ribozyme fitness (log ratio)
A29U A73G C93A G128U G140U	≤ -4.2
C43U C54A U55C C85U C99G A147G	≤ -4.2
A28U A29G C75G G81U C85G A106C C129A	≤ -4.2
C8G G94A C103U G128C U134A	≤ -4.2
U33A C75G C76A A142G	≤ -4.2
A16U U56A G83A U109C U111G	≤ -4.2
A20U A49C G58C C87U	≤ -4.2
A23U C93U G126U	≤ -4.2
G34A A49C C95U G140U G141A	≤ -4.2
C51U C87U A121U	-0.813
C18U A19U A64G A89G A119U U146C	≤ -4.2
G59U G84U	-2.72
A66U A89G	≤ -4.2
A12U C87A A113U A115C U148A	≤ -4.2
A29C A49C C57G C132U	≤ -4.2
A29U A41U C75U C123U G143U U145G	≤ -4.2
G83C U90C A107C C116A U127C A150C	≤ -4.2
A12U A16G A30U C79G C95A U144A	≤ -4.2
A39U U55A G83U C95G A115C C149G	≤ -4.2
U9G C14A C85U G141U	-4.19
U61A U90C C96A A115U G152U	≤ -4.2

Variant	polymerase ribozyme fitness (log ratio)
C27U G58C C87A A107U	≤ -4.2
A40C G92U G94A	0.834
C79U C103G	≤ -4.2
A52U U53G U56A G65C C75U C85U U104G U127C U139A	≤ -4.2
C63G A73G	-0.51
C27U C51G	-3.3
A52C C99G	-4.11
C35U A106U A142U	-4.15
C35A U146A	-3.32
U53A U55G G65C C85G C87U C103U C131A	≤ -4.2
A60G G68U G80C U139A	≤ -4.2
G84U U104G C125A	-3.09
G92C G124U C129U A138G U139G	≤ -4.2
A19C A150G	-0.495
A21U C51U C93G C105U A120G	-3.58
C123A G140A	-3.65
C51A C99G	-4.07
U31A U53A	-0.327
G88A C105A A147C U151G	≤ -4.2
U82G G86U C123U	-1.47
U44C C85A A91U U127G	≤ -4.2

Variant	polymerase ribozyme fitness (log ratio)
U82G C96U A137C	-3.87
A49G A106G	-1.08
C85G C87U U145A	-2.77
A37C U77C G92A C96A U139C	≤ -4.2
G11U A91G	-3.82
A12U U56G A89G C93A A113G	-3.89
U7A A26U C27U A41U U55G C93U	≤ -4.2
G59A C132G U139C	-2.96
G94A A119U	-2.21
C57G G59U A64C C103G C116G A137C	≤ -4.2
C5A A20C	0.413
A24C G86U U90A U101A A106G A113U A120U G126A	≤ -4.2
A22U G88C A147C	-4.19
A3C G86A C125U	-2.79
A23U A24C G25U G94C A119C C123A G141C	≤ -4.2
C85A	-1.28
A21C A24U C54G C85U A121C	-0.525
U82A C125A	-0.504
C14U U15C A23U A41U C85A	≤ -4.2
U78A G80A U82A A142U	≤ -4.2
A41C G136A	0.215

Variant	polymerase ribozyme fitness (log ratio)
U109G C118A C125G	-3.62
A21G A30G A89C	≤ -4.2
A40C A97C	1.5
C10G U13C G70A U111G U148A	≤ -4.2
A24G C35U G48U A52U C125A	≤ -4.2
C8A U56A A66C G94A A98U	≤ -4.2
A137U G143U	-3.39
C43A A52G C69U A91U C96U A106U	≤ -4.2
C85A U145G	-1.06
C87G U139A	≤ -4.2
C38U U55G C85A	-2.3
G94C A97U	-2.45
C8U A19C A40G C57U G92U G140A U146A	≤ -4.2
A16C A37U G58A G80U C85G C93G A150G	≤ -4.2
U15G A19U A91U	-3.99
G58A C87U G92A A150G	-0.884
C18U A40C C93A	-2.24
A89C C96U A97C C99U	-3.09
C27U A122G	-2.4
U44A G88A A120U	≤ -4.2
